Molecular target: protein having a molecular weight of about 44,000 which constitutes the membrane-bound alcohol dehydrogenase complex of Acetobacter altoacetigenes MH-24 (cytochrome c) (Acetobacter altoacetigenes MH-24)

ADH enzyme activity (U/mg protein) in cell homogenate of transformed ADH-deleted mutant 10-80: 0.4 U/mg protein
Substance: protein having a molecular weight of about 72,000 which constitutes the membrane-bound alcohol dehydrogenase complex of Acetobacter altoacetigenes MH-24 (enzyme)
